Here are results for 80 sequences from the supplement of paper PMC10724198.

± gives the standard deviation of the averaged measurements.
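Also: PSI is a weighted mean of sequencing reads over stability bins, variants kept only with over 10 reads, mCherry proximal and sfGFP distal, peptide attached via GGGS linker.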

The subject of this data set is Saccharomyces cerevisiae. The data set can be described thus: protein stability index of tFT-peptide fusion (C-terminal peptide) (PSI (0-1 scale)); higher = more stable (slower turnover). The conditions noted are these: genetic background: wild type; temperature: 30 C.
TAKGSSIMCVKI showed a protein stability index of 0.729 ± 0.05.

TAPPPSQTPPRT gave a protein stability index of 0.684 ± 0.0076.

In turn, TAPSGIYFSLPL returned a protein stability index of 0.66 ± 0.054.

The sequence TARSTSPHHIPR had a protein stability index of 0.835 ± 0.22.

Regarding TASAGLVAAATI, the protein stability index is 0.668 ± 0.034.

For TCPPAPSTGPST, the protein stability index is 0.648 ± 0.0073.

TCTIQSEDFHEI yielded a protein stability index of 0.707 ± 0.063.

Sequence TDNIRIERYKEQ yielded a protein stability index of 0.689 ± 0.064.

The sequence TDWCPQSCVCSL registered a protein stability index of 0.647 ± 0.051.

Consider TDYSSPKTSLSR, for which the protein stability index is 0.668 ± 0.056.

TEEVRVRVQTEL registered a protein stability index of 0.663 ± 0.035.

Turning to TESGVCWCRREV, the protein stability index was found to be 0.685 ± 0.04.

In turn, TEVWERGKNVGE displayed a protein stability index of 0.635 ± 0.03.

TEWIRGTAVNSS returned a protein stability index of 0.701 ± 0.023.

Consider TEYRRRPNETAM, for which the protein stability index stood at 0.705 ± 0.037.

TFIKMEKKKDGG had a protein stability index of 0.663 ± 0.034.

Take TFLMEMVPRLFI: the protein stability index worked out at 0.664 ± 0.036.

For the sequence TFLPPTTSPYVL, the protein stability index turned out to be 0.738 ± 0.052.

For TFPPSAPQSSCS, the protein stability index was found to be 0.7041 ± 0.0027.

Consider TFPRRCILNIQI, for which the protein stability index worked out at 0.635 ± 0.024.

For TFQMAYHSRTAV, the protein stability index was 0.637 ± 0.13.

As to TFREMPESIGNG, the protein stability index was 0.654 ± 0.047.

TFSFPSPAPHSC showed a protein stability index of 0.781 ± 0.033.

Take TFSHRVICTGND: the protein stability index was 0.733 ± 0.072.

In turn, TFSPPLSSPPGP came in with a protein stability index of 0.706 ± 0.032.

TGEVSTRVGQRE had a protein stability index of 0.66 ± 0.07.

In turn, TGIDLPHFVSLF returned a protein stability index of 0.658 ± 0.088.

The sequence TGKWRSFQAYYY returned a protein stability index of 0.667 ± 0.039.

The sequence TGNSPSRTGNGI yielded a protein stability index of 0.647 ± 0.018.

For TGSKKKKVEIEM, the protein stability index is 0.679 ± 0.048.

As for TGSRHDLDGSMK, the protein stability index is 0.679 ± 0.017.

For TGWRFVRSKGGS, the protein stability index was 0.741 ± 0.045.

THCSGAGPPSPP had a protein stability index of 0.689 ± 0.068.

Sequence THKGAPTCRSAR registered a protein stability index of 0.6723 ± 0.0037.

The sequence THLASTESVVRP showed a protein stability index of 0.69 ± 0.033.

Regarding THPPATSPPPYP, the protein stability index is 0.6631 ± 0.0057.

For THTPPPSPLTLP, the protein stability index came out at 0.671 ± 0.021.

Consider THTTIQKTNQNE, for which the protein stability index worked out at 0.703 ± 0.026.

On to TIASGCTWSPGH, for which the protein stability index amounted to 0.645 ± 0.013.

For TIDACFHSDWGC, the protein stability index came out at 0.782 ± 0.11.

On to TIELNLPPSVVR, for which the protein stability index was 0.642 ± 0.037.

Sequence TIGPVRSGHVLA yielded a protein stability index of 0.6807 ± 0.0055.

The sequence TIIRQRHYAPNL yielded a protein stability index of 0.6771 ± 0.0056.

The sequence TIMRGEPGQSHF showed a protein stability index of 0.741 ± 0.089.

For TIPSSSQVPIGG, the protein stability index amounted to 0.641 ± 0.021.

Take TKEEDKNEGRRR: the protein stability index came out at 0.662 ± 0.055.

Consider TKFSSPPLVRTS, for which the protein stability index came out at 0.71 ± 0.031.

TKKNKLRQKKTE yielded a protein stability index of 0.6457 ± 0.0028.

Sequence TKLKKKGTKKKR showed a protein stability index of 0.662 ± 0.018.

Regarding TKPTRPVSPTHL, the protein stability index was determined as 0.693 ± 0.12.

TKQSKRKHESRT registered a protein stability index of 0.671 ± 0.044.

In turn, TKRLLPPRTVAI showed a protein stability index of 0.696 ± 0.066.

Turning to TKRRKKIPENRI, the protein stability index stood at 0.6649 ± 0.0049.

TKSPYLTVNETA returned a protein stability index of 0.686 ± 0.055.

Sequence TKSRKWEERENQ registered a protein stability index of 0.682 ± 0.013.

In turn, TKTKKKTQEGSR had a protein stability index of 0.739 ± 0.1.

Take TLFSVGSDAMIV: the protein stability index turned out to be 0.708 ± 0.041.

In turn, TLFTRRSIMKGN registered a protein stability index of 0.62 ± 0.068.

The sequence TLGLTLSAFALT displayed a protein stability index of 0.635 ± 0.043.

In turn, TLLAALIRFDAV yielded a protein stability index of 0.691 ± 0.041.

Consider TLLAPPAPTPAG, for which the protein stability index was found to be 0.684 ± 0.036.

On to TLLPPACFPTPP, for which the protein stability index was found to be 0.717 ± 0.017.

For the sequence TLPARPSVPLPP, the protein stability index turned out to be 0.629 ± 0.06.

Regarding TLPSPPSPSPRP, the protein stability index was determined as 0.679 ± 0.085.

Turning to TLQKKLTVNTKK, the protein stability index was determined as 0.738 ± 0.11.

The sequence TLRPKASPPAAL came in with a protein stability index of 0.642 ± 0.021.

As for TLRTPGFSSSLH, the protein stability index came out at 0.721 ± 0.025.

In the case of TLSPPLPPPSPS, the protein stability index amounted to 0.66129 ± 0.00029.

With TLSSLVGACLYV, the protein stability index is 0.614 ± 0.038.

In turn, TNGVNHIDAHGQ had a protein stability index of 0.645 ± 0.018.

The sequence TNKKEPTMTRKK registered a protein stability index of 0.72528 ± 0.00042.

TNNLRLKVIGPK yielded a protein stability index of 0.653 ± 0.021.

With TNQITRHELTTY, the protein stability index amounted to 0.599 ± 0.043.

Turning to TNRNGQQRWEKG, the protein stability index came out at 0.64 ± 0.0078.

The sequence TNRRSRLQVSSN registered a protein stability index of 0.635 ± 0.08.

On to TPAMPRNPTDDS, for which the protein stability index is 0.651 ± 0.0068.

In the case of TPAPLLPRRTPP, the protein stability index was 0.734 ± 0.073.

As for TPCSRMRPSLLF, the protein stability index stood at 0.709 ± 0.11.

The sequence TPKTTGRPCDRT registered a protein stability index of 0.69 ± 0.0098.

In turn, TPLNPDSLDRPT registered a protein stability index of 0.657 ± 0.0097.
